Experimental findings from PMC6391492, “Native mass spectrometry identifies an alternative DNA-binding pathway for BirA from Staphylococcus aureus” are described below.

In general, stoichiometry N refers to a count of units in the complex or per binding partner.

Series [1] has as its target S. aureus BirA (biotin retention protein A, biotin protein ligase), strain Mu50, wild type (S. aureus strain Mu50). Nature of the series: native MS; holo proteins (pre-incubated with 500 µM biotin, 1 mM ATP, 1 mM MgCl2 on ice, then buffer exchanged), no DNA, 10 µM protein in 200 mM ammonium acetate pH 6.85; dimer to monomers.
Series [2] shares this target. The series is described as follows: native MS; holo proteins, 10 µM, with 5 µM SabioO oligonucleotide with only one BirA half site, 200 mM ammonium acetate pH 6.9, 4 °C at least 1 hour.
The target of series [3] is T1, SaBirA (Staphylococcus aureus Mu50, UniProt A0A0H3JRH8 1-323). The series is described as follows: EMSA; holo; biotin, ATP, Mg2+; up to 2 uM; nESI-MS: 200 mM ammonium acetate pH 6.9, 10 uM protein, 5 uM DNA, 4 C >=1 h; EMSA: 50 mM Tris pH 8.0, 50 mM NaCl, 0.1 mM biotin, 1 mM ATP, 1 mM MgCl2, 10% glycerol, 10 nM DNA, room temperature 30 min. The following applies: protein: recombinant; label: none; blunt. On the technique in general: A gel shift assay detects complexes by their altered migration in electrophoresis.

The target of series [4] is T1, SaBirA. Nature of the series: native nESI-MS; apo; nESI-MS: 200 mM ammonium acetate pH 6.9, 10 uM protein, 5 uM DNA, 4 C >=1 h; EMSA: 50 mM Tris pH 8.0, 50 mM NaCl, 0.1 mM biotin, 1 mM ATP, 1 mM MgCl2, 10% glycerol, 10 nM DNA, room temperature 30 min. To be noted: protein: recombinant; label: none; blunt.
Series [5] addresses T2, SaBirA-F123G (Staphylococcus aureus Mu50, UniProt A0A0H3JRH8 1-323, F123G). The series is described as above. The following applies: protein: recombinant; label: none; blunt.
Series [6] addresses T2, SaBirA-F123G. Nature of the series: EMSA; holo; biotin, ATP, Mg2+; nESI-MS: 200 mM ammonium acetate pH 6.9, 10 uM protein, 5 uM DNA, 4 C >=1 h; EMSA: 50 mM Tris pH 8.0, 50 mM NaCl, 0.1 mM biotin, 1 mM ATP, 1 mM MgCl2, 10% glycerol, 10 nM DNA, room temperature 30 min. To be noted: protein: recombinant, label: none.
In series [7] the target is T1, SaBirA. Nature of the series: native nESI-MS; apo; two subunits on DNA; nESI-MS: 200 mM ammonium acetate pH 6.9, 10 uM protein, 5 uM DNA, 4 C >=1 h; EMSA: 50 mM Tris pH 8.0, 50 mM NaCl, 0.1 mM biotin, 1 mM ATP, 1 mM MgCl2, 10% glycerol, 10 nM DNA, room temperature 30 min. The following applies: protein: recombinant; label: none; blunt.
For series [8], the target named is T2, SaBirA-F123G. The series is described as follows: native nESI-MS; apo; one subunit on DNA; nESI-MS: 200 mM ammonium acetate pH 6.9, 10 uM protein, 5 uM DNA, 4 C >=1 h; EMSA: 50 mM Tris pH 8.0, 50 mM NaCl, 0.1 mM biotin, 1 mM ATP, 1 mM MgCl2, 10% glycerol, 10 nM DNA, room temperature 30 min. The following applies: protein: recombinant; label: none; blunt.
Series [9] addresses T1, SaBirA. The series is described as follows: native nESI-MS; apo; one monomer on DNA, no dimer; nESI-MS: 200 mM ammonium acetate pH 6.9, 10 uM protein, 5 uM DNA, 4 C >=1 h; EMSA: 50 mM Tris pH 8.0, 50 mM NaCl, 0.1 mM biotin, 1 mM ATP, 1 mM MgCl2, 10% glycerol, 10 nM DNA, room temperature 30 min. The following applies: protein: recombinant; label: none; blunt.
Series [10] has as its target EcBirA (Escherichia coli, UniProt P06709 1-321). Nature of the series: native nESI-MS; holo (biotinyl-5'-AMP); two subunits on DNA; nESI-MS: 200 mM ammonium acetate pH 6.9, 10 uM protein, 5 uM DNA, 4 C >=1 h; EMSA: 50 mM Tris pH 8.0, 50 mM NaCl, 0.1 mM biotin, 1 mM ATP, 1 mM MgCl2, 10% glycerol, 10 nM DNA, room temperature 30 min. The following applies: protein: recombinant; chain copies: 2; label: none.

Series [11] deals with EcBirA-R119W (Escherichia coli, UniProt P06709 1-321, R119W). Nature of the series: native nESI-MS; holo (biotinyl-5'-AMP); two subunits on DNA; 10 uM protein; nESI-MS: 200 mM ammonium acetate pH 6.9, 10 uM protein, 5 uM DNA, 4 C >=1 h; EMSA: 50 mM Tris pH 8.0, 50 mM NaCl, 0.1 mM biotin, 1 mM ATP, 1 mM MgCl2, 10% glycerol, 10 nM DNA, room temperature 30 min. To be noted: protein: recombinant; label: none.

Turning to “S. aureus BirA (biotin retention protein A, biotin protein ligase), strain Mu50, wild type (enzyme)”, the stoichiometry N in series [1] and in [2] was 2 throughout.

B1: HS2m SabioO (second half-site mutated) (dsDNA)
DNA 1: TTAAATGTAAACTTATTAATTATAAAAAGCAGACACCG
DNA 2: CGGTGTCTGCTTTTTATAATTAATAAGTTTACATTTAA
As for B1, in [3], the binding result was “no binding”.

B2: HSm SabioO (both half-sites mutated) (dsDNA)
DNA 1: TTACACAGACGATTATTAATTATAAAAAGCAGACACCG
DNA 2: CGGTGTCTGCTTTTTATAATTAATAATCGTCTGTGTAA
As for B2, the binding result in series [4] and in [5] was “no binding” each time.

B3: SabioY (full strands) (dsDNA)
DNA 1: AACTTATTGTAAACTTTTCATTTCTTAAAGTTTACAATGGTGCT
DNA 2: AGCACCATTGTAAACTTTAAGAAATGAAAAGTTTACAATAAGTT
For the molecule B3, the binding result in series [6] (blunt) and in series [7] was “binds” in each case.

B4: HS1m SabioO (first half-site mutated) (dsDNA)
DNA 1: TTACACAGACGATTATTAATTATAAAAGTTTACATTCG
DNA 2: CGAATGTAAACTTTTATAATTAATAATCGTCTGTGTAA
Regarding B4, the binding result in series [8] and in [9] was “binds” throughout.

B5: SabioO (dsDNA)
DNA 1: CCTTAAATGTAAACTTTTATAATTAATAAGTTTACATTTAAG
DNA 2: CCTTAAATGTAAACTTATTAATTATAAAAGTTTACATTTAAGG
In the case of B5, in series [6], the binding result is listed as “binds”.

B6: EcbioO (dsDNA)
DNA 1: TAATCGACTTGTAAACCAAATTGAAAAGATTTAGGTTTACAAGTCTACAC
DNA 2: GTGTAGACTTGTAAACCTAAATCTTTTCAATTTGGTTTACAAGTCGATTA
Take B6: the binding result in [10] and in series [11] was “binds” throughout.
